Test results published in US20260152552A1 (CURON BIOPHARMACEUTICAL SHANGHAI, published 2026).

Target: T1, human L1CAM (L1 cell adhesion molecule), endogenously expressed on the surface of HeLa cells (human, UniProt P32004 20-1257)
T1 construct: whole, on cells; also called CD171
Experiment: flow cytometry on HeLa cells (endogenous human L1CAM)
Experimental: The experimental principle is as follows: HeLa cells express high levels of L1CAM protein on their surface. After incubating humanized L1CAM antibodies with the cells, the binding ability of the antibodies to L1CAM on the surface of HeLa cells can be determined by flow cytometry. The experimental method is descripted as following: Humanized L1CAM antibodies (Human IgG1-Kappa) are diluted in complete medium in a four-fold serial dilution, with seven concentration gradient points. HeLa cells are cultured in DMEM complete medium (Corning, 10-013-CVR) containing 10% FBS (Gibco, 10099-141) and 100 U/mL penicillin mixture (Thermofisher, 15140122). When the cell coverage in the culture container reaches 80-90%, TrypLE (Thermofisher, 12604-013) is used to digest the HeLa cells from the culture container, and they are seeded in a 96-well plate (AXYGEN, P-96-450V-C) at a density of 2.2×10⁶ cells/ml, with 100,000 cells (45 μL complete medium) per well. Then, 5 μL of the antibody dilution is added to each well, gently mixed, and the 96-well plate is incubated at 4° C. for 1 hour. Then, 150 μL of PBS solution containing 2% FBS (Corning, 21-040-CVC) is added to each well, centrifuged at 1400 rpm for 4 minutes, the supernatant is removed, and the wells are washed once more. Then, 50 μL of Alexa Flour 647-labeled goat anti-human fluorescent secondary antibody (Jacksonimmuno, 109-605-088) diluted 1:800 is added to each well, and the 96-well plate is incubated at 4° C. for 0.5 hours. The cells are washed twice with PBS solution containing 2% FBS, then resuspended in 120 μL of PBS, and the cell surface fluorescence signal is detected using a flow cytometer (BD FACS Celesta), obtaining the median fluorescence intensity (MFI). A dose-response curve is generated, and the half-maximal effective concentration (EC50) is calculated using non-linear regression with GraphPad software.

T1 sequence (P32004 20-1257): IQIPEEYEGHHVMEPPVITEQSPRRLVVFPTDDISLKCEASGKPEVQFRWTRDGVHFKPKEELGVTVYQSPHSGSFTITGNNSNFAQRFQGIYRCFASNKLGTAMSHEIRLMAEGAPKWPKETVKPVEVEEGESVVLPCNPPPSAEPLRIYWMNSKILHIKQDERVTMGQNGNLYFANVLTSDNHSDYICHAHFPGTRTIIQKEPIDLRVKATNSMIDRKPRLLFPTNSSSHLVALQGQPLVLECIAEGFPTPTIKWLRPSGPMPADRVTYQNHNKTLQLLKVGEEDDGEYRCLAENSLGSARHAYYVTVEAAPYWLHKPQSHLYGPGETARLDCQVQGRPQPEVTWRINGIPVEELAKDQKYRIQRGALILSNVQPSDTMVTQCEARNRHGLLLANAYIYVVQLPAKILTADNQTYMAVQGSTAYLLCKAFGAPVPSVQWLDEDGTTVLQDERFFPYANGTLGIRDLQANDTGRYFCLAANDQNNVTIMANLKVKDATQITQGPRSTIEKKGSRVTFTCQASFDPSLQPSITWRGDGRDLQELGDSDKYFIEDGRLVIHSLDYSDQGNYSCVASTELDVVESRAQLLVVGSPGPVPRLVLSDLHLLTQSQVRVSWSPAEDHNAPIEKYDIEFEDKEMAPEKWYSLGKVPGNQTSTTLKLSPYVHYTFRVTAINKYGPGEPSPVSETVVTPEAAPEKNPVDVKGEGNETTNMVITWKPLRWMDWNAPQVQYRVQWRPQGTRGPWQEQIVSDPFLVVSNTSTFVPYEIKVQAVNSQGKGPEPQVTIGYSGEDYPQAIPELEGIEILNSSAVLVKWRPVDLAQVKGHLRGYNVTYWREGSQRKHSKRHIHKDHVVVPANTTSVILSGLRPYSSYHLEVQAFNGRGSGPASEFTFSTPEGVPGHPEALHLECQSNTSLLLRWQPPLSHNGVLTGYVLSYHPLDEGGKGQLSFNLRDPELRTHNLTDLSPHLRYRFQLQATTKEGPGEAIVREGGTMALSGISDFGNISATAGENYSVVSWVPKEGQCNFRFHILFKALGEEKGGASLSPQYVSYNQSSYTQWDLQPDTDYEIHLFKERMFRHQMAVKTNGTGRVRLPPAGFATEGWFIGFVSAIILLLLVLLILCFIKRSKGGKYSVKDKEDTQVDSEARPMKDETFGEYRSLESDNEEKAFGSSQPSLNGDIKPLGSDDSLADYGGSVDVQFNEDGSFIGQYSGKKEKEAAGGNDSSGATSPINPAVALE

| Binder | EC50 |
| --- | --- |
| humanized anti-L1CAM antibody hz49E10H1H6L5 (antibody, V domains shown) VH: DVQLQESGPGLVKPSQTLSLTCTVSGGSISSDYAWNWIRQPPGKGLEWIGYITYSGTTTYNPSLKSRVTISRDTSKNQFSLKLSSVTAADTAVYYCTLDHYGNYAYFDYWGQGTTVTVSS VL: DIQMTQSPSSLSASVGDRVTITCRASSSVSFMHWYQQKPGKAPKLLIYASSNLVSGVPSRFSGSGSGTDFTLTISSLQPEDFATYYCQQWSSNPSTFGGGTKVEIK | 24.3 nM |
| humanized anti-L1CAM antibody hz103E9B3H6L5 (antibody, V domains shown) VH: EVQLVQSGAEVKKPGASVKVSCKASGYTFTSYTMHWVRQAPGQGLEWMGDINPNYGGTSYNEKFKDRATMTTDTSTSTAYMELRSLRSDDTAVYYCAREGATGTWYFDVWGQGTTVTVSS VL: DIQMTQSPSSLSASVGDRVTITCSASSSVSFMFWYQQKPGKAPKPLIYLTSNLASGVPSRFSGSGSGTDFTLTISSLQPEDFATYYCQQWRSNPPTFGGGTKVEIK | 1.48 nM |
| humanized anti-L1CAM antibody hz103E9B3H9L4 (antibody, V domains shown) VH: EVQLVQSGAEVKKPGASVKVSCKASGYTFTSYTMHWVRQAPGQGLEWIGDINPNYGGTSYNEKFKDRATLTVDKSTSTAYMELRSLRSDDTAVYYCAREGATGTWYFDVWGQGTTVTVSS VL: DIQMTQSPSSLSASVGDRVTITCSASSSVSFMFWYQQKPGKAPKLLIYLTSNLASGVPSRFSGSGSGTDFTLTISSLQPEDFATYYCQQWRSNPPTFGGGTKVEIK | 5.56 nM |
| humanized anti-L1CAM antibody hz49E10H1H7L5 (antibody, V domains shown) VH: QVQLQESGPGLVKPSQTLSLTCTVSGGSISSDYAWNWIRQPPGKGLEWMGYITYSGTTTYNPSLKSRITISRDTSKNQFSLKLSSVTAADTAVYYCTLDHYGNYAYFDYWGQGTTVTVSS VL: DIQMTQSPSSLSASVGDRVTITCRASSSVSFMHWYQQKPGKAPKLLIYASSNLVSGVPSRFSGSGSGTDFTLTISSLQPEDFATYYCQQWSSNPSTFGGGTKVEIK | 10.4 nM |
| humanized anti-L1CAM antibody hz103E9B3H7L4 (antibody, V domains shown) VH: EVQLVQSGAEVKKPGASVKVSCKASGYTFTSYTMHWVRQAPGQGLEWIGDINPNYGGTSYNEKFKDRATLTTDTSTSTAYMELRSLRSDDTAVYYCAREGATGTWYFDVWGQGTTVTVSS VL: DIQMTQSPSSLSASVGDRVTITCSASSSVSFMFWYQQKPGKAPKLLIYLTSNLASGVPSRFSGSGSGTDFTLTISSLQPEDFATYYCQQWRSNPPTFGGGTKVEIK | 5.32 nM |
| humanized anti-L1CAM antibody hz49E10H1H8L5 (antibody, V domains shown) VH: DVQLQESGPGLVKPSQTLSLTCTVSGGSISSDYAWNWIRQPPGNGLEWMGYITYSGTTTYNPSLKSRITISRDTSKNQFSLKLSSVTAADTAVYYCTLDHYGNYAYFDYWGQGTTVTVSS VL: DIQMTQSPSSLSASVGDRVTITCRASSSVSFMHWYQQKPGKAPKLLIYASSNLVSGVPSRFSGSGSGTDFTLTISSLQPEDFATYYCQQWSSNPSTFGGGTKVEIK | 9.27 nM |
| humanized anti-L1CAM antibody hz103E9B3H6L4 (antibody, V domains shown) VH: EVQLVQSGAEVKKPGASVKVSCKASGYTFTSYTMHWVRQAPGQGLEWMGDINPNYGGTSYNEKFKDRATMTTDTSTSTAYMELRSLRSDDTAVYYCAREGATGTWYFDVWGQGTTVTVSS VL: DIQMTQSPSSLSASVGDRVTITCSASSSVSFMFWYQQKPGKAPKLLIYLTSNLASGVPSRFSGSGSGTDFTLTISSLQPEDFATYYCQQWRSNPPTFGGGTKVEIK | 6.59 nM |
| humanized anti-L1CAM antibody hz103E9B3H5L4 (antibody, V domains shown) VH: EVQLVQSGAEVKKPGASVKVSCKASGYTFTSYTMHWVRQAPGQGLEWMGDINPNYGGTSYNEKFKDRVTMTTDTSTSTAYMELRSLRSDDTAVYYCAREGATGTWYFDVWGQGTTVTVSS VL: DIQMTQSPSSLSASVGDRVTITCSASSSVSFMFWYQQKPGKAPKLLIYLTSNLASGVPSRFSGSGSGTDFTLTISSLQPEDFATYYCQQWRSNPPTFGGGTKVEIK | 6.84 nM |
| humanized anti-L1CAM antibody hz103E9B3H6L6 (antibody, V domains shown) VH: EVQLVQSGAEVKKPGASVKVSCKASGYTFTSYTMHWVRQAPGQGLEWMGDINPNYGGTSYNEKFKDRATMTTDTSTSTAYMELRSLRSDDTAVYYCAREGATGTWYFDVWGQGTTVTVSS VL: DIQMTQSPSSLSASVGDRVTITCSASSSVSFMFWYQQKPGKAPKPWIYLTSNLASGVPSRFSGSGSGTDFTLTISSLQPEDFATYYCQQWRSNPPTFGGGTKVEIK | 2.18 nM |
| humanized anti-L1CAM antibody hz103E9B3H7L5 (antibody, V domains shown) VH: EVQLVQSGAEVKKPGASVKVSCKASGYTFTSYTMHWVRQAPGQGLEWIGDINPNYGGTSYNEKFKDRATLTTDTSTSTAYMELRSLRSDDTAVYYCAREGATGTWYFDVWGQGTTVTVSS VL: DIQMTQSPSSLSASVGDRVTITCSASSSVSFMFWYQQKPGKAPKPLIYLTSNLASGVPSRFSGSGSGTDFTLTISSLQPEDFATYYCQQWRSNPPTFGGGTKVEIK | 2.13 nM |

The remaining lines, values ahead:

| EC50 | Binder |
| --- | --- |
| 1.06 nM | humanized anti-L1CAM antibody hz49E10H1H8L6 (antibody, V domains shown) VH: DVQLQESGPGLVKPSQTLSLTCTVSGGSISSDYAWNWIRQPPGNGLEWMGYITYSGTTTYNPSLKSRITISRDTSKNQFSLKLSSVTAADTAVYYCTLDHYGNYAYFDYWGQGTTVTVSS VL: DIQMTQSPSSLSASVGDRVTITCRASSSVSFMHWYQQKPGKAPKPWIYASSNLVSGVPSRFSGSGSGTDFTLTISSLQPEDFATYYCQQWSSNPSTFGGGTKVEIK |
| 1.96 nM | humanized anti-L1CAM antibody hz103E9B3H9L5 (antibody, V domains shown) VH: EVQLVQSGAEVKKPGASVKVSCKASGYTFTSYTMHWVRQAPGQGLEWIGDINPNYGGTSYNEKFKDRATLTVDKSTSTAYMELRSLRSDDTAVYYCAREGATGTWYFDVWGQGTTVTVSS VL: DIQMTQSPSSLSASVGDRVTITCSASSSVSFMFWYQQKPGKAPKPLIYLTSNLASGVPSRFSGSGSGTDFTLTISSLQPEDFATYYCQQWRSNPPTFGGGTKVEIK |
| 0.852 nM | humanized anti-L1CAM antibody hz49E10H1H7L7 (antibody, V domains shown) VH: QVQLQESGPGLVKPSQTLSLTCTVSGGSISSDYAWNWIRQPPGKGLEWMGYITYSGTTTYNPSLKSRITISRDTSKNQFSLKLSSVTAADTAVYYCTLDHYGNYAYFDYWGQGTTVTVSS VL: QIQMTQSPSSLSASVGDRVTITCRASSSVSFMHWYQQKPGKAPKPWIYASSNLVSGVPSRFSGSGSGTDYTLTISSLQPEDFATYYCQQWSSNPSTFGGGTKVEIK |
| 2.03 nM | humanized anti-L1CAM antibody hz103E9B3H7L6 (antibody, V domains shown) VH: EVQLVQSGAEVKKPGASVKVSCKASGYTFTSYTMHWVRQAPGQGLEWIGDINPNYGGTSYNEKFKDRATLTTDTSTSTAYMELRSLRSDDTAVYYCAREGATGTWYFDVWGQGTTVTVSS VL: DIQMTQSPSSLSASVGDRVTITCSASSSVSFMFWYQQKPGKAPKPWIYLTSNLASGVPSRFSGSGSGTDFTLTISSLQPEDFATYYCQQWRSNPPTFGGGTKVEIK |
| 1.03 nM | humanized anti-L1CAM antibody hz49E10H1H6L6 (antibody, V domains shown) VH: DVQLQESGPGLVKPSQTLSLTCTVSGGSISSDYAWNWIRQPPGKGLEWIGYITYSGTTTYNPSLKSRVTISRDTSKNQFSLKLSSVTAADTAVYYCTLDHYGNYAYFDYWGQGTTVTVSS VL: DIQMTQSPSSLSASVGDRVTITCRASSSVSFMHWYQQKPGKAPKPWIYASSNLVSGVPSRFSGSGSGTDFTLTISSLQPEDFATYYCQQWSSNPSTFGGGTKVEIK |
| 1.68 nM | humanized anti-L1CAM antibody hz103E9B3H5L5 (antibody, V domains shown) VH: EVQLVQSGAEVKKPGASVKVSCKASGYTFTSYTMHWVRQAPGQGLEWMGDINPNYGGTSYNEKFKDRVTMTTDTSTSTAYMELRSLRSDDTAVYYCAREGATGTWYFDVWGQGTTVTVSS VL: DIQMTQSPSSLSASVGDRVTITCSASSSVSFMFWYQQKPGKAPKPLIYLTSNLASGVPSRFSGSGSGTDFTLTISSLQPEDFATYYCQQWRSNPPTFGGGTKVEIK |
| 0.82 nM | humanized anti-L1CAM antibody hz49E10H1H8L7 (antibody, V domains shown) VH: DVQLQESGPGLVKPSQTLSLTCTVSGGSISSDYAWNWIRQPPGNGLEWMGYITYSGTTTYNPSLKSRITISRDTSKNQFSLKLSSVTAADTAVYYCTLDHYGNYAYFDYWGQGTTVTVSS VL: QIQMTQSPSSLSASVGDRVTITCRASSSVSFMHWYQQKPGKAPKPWIYASSNLVSGVPSRFSGSGSGTDYTLTISSLQPEDFATYYCQQWSSNPSTFGGGTKVEIK |
| 1.93 nM | humanized anti-L1CAM antibody hz103E9B3H5L6 (antibody, V domains shown) VH: EVQLVQSGAEVKKPGASVKVSCKASGYTFTSYTMHWVRQAPGQGLEWMGDINPNYGGTSYNEKFKDRVTMTTDTSTSTAYMELRSLRSDDTAVYYCAREGATGTWYFDVWGQGTTVTVSS VL: DIQMTQSPSSLSASVGDRVTITCSASSSVSFMFWYQQKPGKAPKPWIYLTSNLASGVPSRFSGSGSGTDFTLTISSLQPEDFATYYCQQWRSNPPTFGGGTKVEIK |
| 0.996 nM | humanized anti-L1CAM antibody hz49E10H1H6L7 (antibody, V domains shown) VH: DVQLQESGPGLVKPSQTLSLTCTVSGGSISSDYAWNWIRQPPGKGLEWIGYITYSGTTTYNPSLKSRVTISRDTSKNQFSLKLSSVTAADTAVYYCTLDHYGNYAYFDYWGQGTTVTVSS VL: QIQMTQSPSSLSASVGDRVTITCRASSSVSFMHWYQQKPGKAPKPWIYASSNLVSGVPSRFSGSGSGTDYTLTISSLQPEDFATYYCQQWSSNPSTFGGGTKVEIK |
